# In the Human Domainome abundance scans (Beltran et al. 2025):
# ± gives the uncertainty stated by the source.
# B1: Homeobox protein cut-like 1, residues 941 to 1008; numbered along this chain, P39880 (parent)
# chain: QEVDTIELTRQVKEKLAKNGICQRIFGEKVLGLSQGSVSDMLSRPKPWSKLTQKGREPFIRMQLWLNG
# Variants of: B1
# Assay: abundance fitness (aPCA) (normalised: wild type 0, dead -1); higher = more abundant; growth selection in yeast, the domain comes from the species named
# Details: Homo sapiens
row,Variant,abundance fitness
1,T9N,-0.348 ± 0.15
2,T9H,-0.142 ± 0.12
3,T9L,-0.405 ± 0.046
4,T9A,0.026 ± 0.063
5,T9M,-0.384 ± 0.069
6,T9Y,-0.577 ± 0.13
7,T9D,-0.168 ± 0.14
8,I21Y,0.019 ± 0.098
9,I21M,-0.1 ± 0.069
10,I21F,-0.115 ± 0.11
11,I21D,-0.559 ± 0.17
12,I21P,-0.319 ± 0.071
13,I21C,-0.419 ± 0.1
14,I21R,-0.402 ± 0.044
15,I21Q,-0.184 ± 0.072
16,I21W,0 ± 0.052
17,I21L,-0.08 ± 0.046
18,I21G,-0.473 ± 0.071
19,I21A,-0.489 ± 0.089
20,I21E,-0.22 ± 0.09
21,I21N,-0.283 ± 0.15
22,I21T,-0.197 ± 0.063
23,I21H,-0.425 ± 0.11
24,I21K,-0.381 ± 0.09

row,Variant,abundance fitness
1,K15E,-0.083 ± 0.13
2,K15Y,0.145 ± 0.096
3,K15D,-0.586 ± 0.13
4,K15C,-0.119 ± 0.095
5,K15F,-0.175 ± 0.11
6,K15V,-0.228 ± 0.074
7,K15I,-0.085 ± 0.14
8,K15M,-0.148 ± 0.075
9,K15R,-0.096 ± 0.063
10,K15L,-0.057 ± 0.063
11,K15H,-0.259 ± 0.11
12,K15S,-0.221 ± 0.065
13,K15T,-0.196 ± 0.081
14,K15G,-0.366 ± 0.077
15,K15N,-0.012 ± 0.11
16,K15P,-0.052 ± 0.084
17,K15W,-0.238 ± 0.083
18,K15Q,-0.119 ± 0.075
19,K15A,-0.147 ± 0.11
20,G27L,-0.12 ± 0.056
21,G27C,-0.019 ± 0.074
22,G27I,-0.067 ± 0.11
23,G27K,-0.137 ± 0.088
24,G27M,-0.208 ± 0.071

row,Variant,abundance fitness
1,G27E,-0.131 ± 0.068
2,G27D,-0.545 ± 0.094
3,G27H,-0.184 ± 0.14
4,G27F,-0.086 ± 0.1
5,G27A,0.1 ± 0.054
6,E14L,-0.152 ± 0.059
7,E14Y,-0.418 ± 0.23
8,E14C,-0.086 ± 0.083
9,E14P,0.005 ± 0.07
10,E14F,-0.443 ± 0.12
11,E14H,-0.498 ± 0.23
12,E14Q,-0.14 ± 0.083
13,E14S,-0.143 ± 0.062
14,E14R,-0.054 ± 0.045
15,E14V,-0.214 ± 0.067
16,E14K,-0.111 ± 0.094
17,E14T,-0.121 ± 0.076
18,E14W,-0.221 ± 0.053
19,E14G,-0.156 ± 0.064
20,E14N,-0.063 ± 0.21
21,A17R,-0.011 ± 0.052
22,A17M,-0.171 ± 0.075
23,A17N,-0.123 ± 0.17
24,A17E,-0.066 ± 0.073

row,Variant,abundance fitness
1,A17Q,-0.115 ± 0.077
2,A17H,-0.108 ± 0.11
3,A17T,-0.163 ± 0.069
4,A17Y,-0.214 ± 0.12
5,A17L,-0.148 ± 0.05
6,A17K,0.033 ± 0.091
7,A17C,-0.154 ± 0.089
8,A17D,0.014 ± 0.098
9,A17W,-0.269 ± 0.059
10,A17F,-0.116 ± 0.12
11,A17G,-0.205 ± 0.049
12,A17V,-0.087 ± 0.047
13,A17I,-0.022 ± 0.1
14,K13W,-0.459 ± 0.088
15,K13M,-0.278 ± 0.073
16,K13N,-0.132 ± 0.097
17,K13Q,-0.1 ± 0.07
18,K13A,-0.339 ± 0.059
19,K13T,-0.146 ± 0.063
20,K13C,-0.459 ± 0.13
21,K13L,-0.326 ± 0.045
22,K13F,-0.768 ± 0.079
23,K13Y,-0.475 ± 0.11
24,K13P,-0.159 ± 0.059

row,Variant,abundance fitness
1,K13R,-0.119 ± 0.056
2,K13H,-0.254 ± 0.098
3,K13E,-0.208 ± 0.074
4,K13G,-0.419 ± 0.062
5,K13S,-0.35 ± 0.056
6,K13D,-0.262 ± 0.081
7,K13V,-0.392 ± 0.046
8,C22E,-0.155 ± 0.073
9,C22Q,-0.256 ± 0.08
10,C22N,-0.192 ± 0.11
11,C22T,0.02 ± 0.062
12,C22D,-0.045 ± 0.11
13,C22S,0.049 ± 0.057
14,C22F,-0.133 ± 0.1
15,C22P,-0.069 ± 0.077
16,C22V,-0.196 ± 0.052
17,C22H,-0.006 ± 0.11
18,C22Y,-0.28 ± 0.094
19,C22L,-0.102 ± 0.056
20,C22G,-0.27 ± 0.053
21,C22M,-0.062 ± 0.077
22,C22R,-0.16 ± 0.048
23,C22W,-0.161 ± 0.071
24,C22A,-0.053 ± 0.056

row,Variant,abundance fitness
1,C22K,-0.229 ± 0.084
2,Q11T,-0.142 ± 0.061
3,Q11S,-0.152 ± 0.047
4,Q11G,-0.165 ± 0.057
5,Q11V,-0.274 ± 0.057
6,Q11N,-0.234 ± 0.095
7,Q11W,-0.448 ± 0.058
8,Q11K,0.132 ± 0.077
9,Q11H,-0.114 ± 0.086
10,Q11P,-0.092 ± 0.077
11,Q11L,-0.125 ± 0.046
12,Q11I,-0.308 ± 0.099
13,Q11A,-0.13 ± 0.067
14,Q11C,-0.323 ± 0.064
15,Q11D,-0.298 ± 0.096
16,Q11R,-0.084 ± 0.039
17,L8E,0.011 ± 0.083
18,L8K,0.04 ± 0.078
19,L8V,0.038 ± 0.064
20,L8R,-0.01 ± 0.055
21,L8N,0.011 ± 0.092
22,L8Y,-0.089 ± 0.089
23,L8I,0.131 ± 0.096
24,L8P,-0.007 ± 0.062

row,Variant,abundance fitness
1,L8G,0.039 ± 0.081
2,L8W,-0.157 ± 0.078
3,L8T,0.003 ± 0.062
4,L8S,-0.002 ± 0.051
5,L8M,0.019 ± 0.06
6,L8Q,-0.032 ± 0.075
7,L8F,-0.152 ± 0.067
8,I25V,-0.008 ± 0.051
9,I25C,-0.283 ± 0.1
10,I25S,-0.03 ± 0.059
11,I25F,0.07 ± 0.089
12,I25E,0.125 ± 0.079
13,I25H,0.073 ± 0.12
14,I25G,-0.225 ± 0.049
15,I25A,-0.002 ± 0.062
16,I25K,-0.022 ± 0.081
17,I25Q,-0.073 ± 0.083
18,I25L,-0.09 ± 0.052
19,I25P,-0.578 ± 0.092
20,I25W,0.021 ± 0.068
21,I25T,0.083 ± 0.08
22,I25Y,0.014 ± 0.086
23,I25D,0.156 ± 0.11
